Data reported in publication PMC6579465, “The priming factor CAPS1 regulates dense-core vesicle acidification by interacting with rabconnectin3β/WDR7 in neuroendocrine cells” (The Journal of Biological Chemistry, 2019).

Molecular target: T1, CAPS1 (calcium-dependent activator protein for secretion, CADPS) (rat (endogenous in rat brain), UniProt Q62717 1-1289)
T1 construct: CAPS1 (CADPS), endogenous protein of rat brain; Precipitated with a rabbit polyclonal CAPS peptide antibody and eluted with the 21-mer peptide immunogen; source: endogenous, rat brain crude synaptosomal membrane fraction, solubilized in 1% Triton X-100
Assay: affinity purification with mass spectrometry; CAPS1 immunoprecipitate of detergent extract resolved by SDS-PAGE; Coomassie-stained bands seen in the CAPS1 but not the control immunoprecipitate excised, in-gel digests, LC-MS/MS
Details: partners not purified

T1 sequence (Q62717 whole entry): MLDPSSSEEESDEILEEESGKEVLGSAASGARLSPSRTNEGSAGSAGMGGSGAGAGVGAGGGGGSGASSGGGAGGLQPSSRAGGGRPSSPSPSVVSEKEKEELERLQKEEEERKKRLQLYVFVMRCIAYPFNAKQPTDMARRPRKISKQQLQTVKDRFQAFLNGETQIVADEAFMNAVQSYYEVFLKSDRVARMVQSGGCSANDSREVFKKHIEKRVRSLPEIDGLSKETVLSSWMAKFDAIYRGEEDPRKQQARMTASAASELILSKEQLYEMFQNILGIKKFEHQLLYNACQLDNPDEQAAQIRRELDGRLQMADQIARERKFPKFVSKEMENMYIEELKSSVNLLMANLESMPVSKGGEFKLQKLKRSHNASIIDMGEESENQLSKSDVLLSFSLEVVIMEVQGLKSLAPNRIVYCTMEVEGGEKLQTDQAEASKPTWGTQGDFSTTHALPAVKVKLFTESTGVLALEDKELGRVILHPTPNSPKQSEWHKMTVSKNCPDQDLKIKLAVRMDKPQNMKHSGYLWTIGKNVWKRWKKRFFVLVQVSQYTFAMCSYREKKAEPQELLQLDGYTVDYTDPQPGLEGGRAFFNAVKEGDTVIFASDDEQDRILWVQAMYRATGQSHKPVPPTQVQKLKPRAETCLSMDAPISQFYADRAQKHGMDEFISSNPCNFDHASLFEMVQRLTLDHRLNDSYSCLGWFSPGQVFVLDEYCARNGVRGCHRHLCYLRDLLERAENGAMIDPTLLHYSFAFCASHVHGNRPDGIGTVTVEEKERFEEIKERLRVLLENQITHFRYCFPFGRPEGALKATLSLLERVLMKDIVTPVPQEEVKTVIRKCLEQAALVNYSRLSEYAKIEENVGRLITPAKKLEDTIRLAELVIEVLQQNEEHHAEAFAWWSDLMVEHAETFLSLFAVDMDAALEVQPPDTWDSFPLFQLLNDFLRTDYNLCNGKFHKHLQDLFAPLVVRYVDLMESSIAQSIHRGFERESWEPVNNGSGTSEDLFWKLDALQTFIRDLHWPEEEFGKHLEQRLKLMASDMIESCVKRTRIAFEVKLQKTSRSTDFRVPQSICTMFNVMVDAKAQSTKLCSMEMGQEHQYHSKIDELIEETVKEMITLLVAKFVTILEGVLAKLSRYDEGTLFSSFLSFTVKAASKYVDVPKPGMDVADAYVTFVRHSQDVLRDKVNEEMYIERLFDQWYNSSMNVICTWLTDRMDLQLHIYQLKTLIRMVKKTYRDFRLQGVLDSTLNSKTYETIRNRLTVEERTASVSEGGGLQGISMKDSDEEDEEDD

B1: Rabconnectin3β (Rbcn3β) / WD repeat domain 7 (WDR7) (natural protein, rat (endogenous in rat brain), UniProt Q9ERH3 1-1488, looked up)
chain: MAGNSLVLPIVLWGRKAPTHCISSILLTDDGGTIVTGCHDGQICLWDLSEELEVNPRALLFGHTAAITCLSKACASGDKQYTVSASANGEMCLWDVNDGRCIEFTKLACTHTGIQFYQFSVGNQREGRLLCHGHYPEILVVDATSLEVLYSLVSKISPDWISSMSIIRSHRTQEDTVVALSVTGILKVWIVTSEISGLQDTEPIFEEESKPIYCQNCQSLSFCAFTQRSLLVVCSKYWRVFDAGDYSLLCSGPSEDGQTWTGGDFVSADKVIIWTENGQSYIYKLPASCLPASDSFRSDVGKAVENLIPPVQHSLLDQKDRELVICPPVTRFFYGCKEYLHKLLIQGDSSGRLSIWNIADIADKQEANEGLKTTTCISLQDAFDKLKPCPAGIIDQLSVIPNSNEPLKVTASVYIPAHGRLVCGREDGSIIIVPATQTAIVQLLQGEHMLRRGWPPHRTLRGHRNKVTCLLYPHQVSARYDQRYLISGGVDFSVIIWDIFSGEMKHIFCVHGGEITQLLVPPENCSARVQHCVCSVASDHSVGLLSLREKKCIMLASRHLFPIQVIKWRPSDDYLVVGCTDGSVCVWQMDTGALDRCAMGITAVEILNACDEAVPAAVDSLSHPAVNLKQAMTRRSLAALKNMAHHKLQTLATNLLASEASDKGNLPKYSHNSLMVQAIKTNLTDPDIHVLFFDVEALIIQLLTEEASRPNTALISPENLQKASGSSDKGGSFLTGKRAAVLFQQVKETIKENIKEHLLDEEEDEEEVMRQRREESDPEYRASKSKPLTLLEYNLTMDTAKLFMSCLHAWGLNEVLDEVCLDRLGMLKPHCTVSFGLLSRGGHMSLMLPGYNQAAGKLLQAKAEAGRKGPATESVGKGTYTVSRAVTTQHLLSIISLANTLMSMTNATFIGDHMKKGPTRPPRPGTPDLSKARDSPPASSNIVQGQIKQAAAPVSARSAADHSGSASASPALRTCFLVNEGWSQLAAMHCVMLPDLLGLGKFRPPLLEMLARRWQDRCLEVREAAQALLLAELRRIEQAGRKETIDTWAPYLPQYMDHVISPGVTAEAMQTMAAAPDASGPEAKVQEEEHDLVDDDITTGCLSSVPQMKKMSTSYEERRKQATAIVLLGVIGAEFGAEIEPPKLLTRPRSSSQIPEGFGLTSGGSNYSLARHTCKALTFLLLQPPSPKLPPHSTIRRTAIDLIGRGFTVWEPYMDVSAVLMGLLELCADAEKQLANITMGLPLSPAADSARSARHALSLIATARPPAFITTIAKEVHRHTALAANTQSQQSIHTTTLARAKGEILRVIEILIEKMPTDVVDLLVEVMDIIMYCLEGSLVKKKGLQECFPAICRFYMVSYYERSHRIAVGARHGSVALYDIRTGKCQTIHGHKGPITAVSFAPDGRYLATYSNTDSHISFWQMNTSLLGSIGMLNSAPQLRCIKTYQVPPVQPASPGSHNALRLARLIWTSNRNVILMAHDGKEHRFMV
notes: Rabconnectin3β / WDR7, endogenous protein of rat brain; also called Rabcn3β; Rbcn3β/WDR7; source: endogenous, rat brain crude synaptosomal membrane fraction, solubilized in 1% Triton X-100
- stoichiometry relative to CAPS1 (bands of the immunoprecipitate): 0.167 Rbcn3 subunit : CAPS1
